Measurements from publication PMC6300606.

Assays:
[1] = biological target: TssKSN (shoulder and neck domains of EAEC TssK, residues 1–315) (enteroaggregative Escherichia coli (EAEC)); assay: cryo-EM structure; TssKSN–TssF–TssG complex co-expressed in E. coli and purified (Ni-NTA, Superose 6); 0.12 mg/ml in 20 mM Tris-HCl pH 7.8, 150 mM NaCl; single-particle cryoEM, 3.7 Å overall
[2] = biological target: TssG (EAEC, residues 64–366) (enteroaggregative Escherichia coli (EAEC)); assay: as above

Substance	stoichiometry N [1]	stoichiometry N (TssF per TssG) [2]
TssKSN (shoulder and neck domains of EAEC TssK, residues 1–315) (domain or fragment)	3	–
TssF (EAEC, full length) (natural protein)	–	2
